According to patent publication US20190307907A1, “MOLECULAR SENSOR FOR NMR/MRI BASED ON ANALYTE-DEPENDENT SPECTRAL CHANGES OF TEMPORARILY ENCAPSULATED HYPERPOLARIZED 129XE” (KLINIKUM RECHTS DER ISAR DER TECHNISCHEN UNIVERSITÄT MÜNCHEN, priority 2016, published 2019):
Where no end group is shown, it is not given here. Cr‑A = cryptophane A cage on the Lys side chain; 5‑Fluo‑M = fluorescein maleimide

Experiments:
calmodulin [1] = target: T1, calmodulin (Homo sapiens, UniProt P0DP23); experiment: Hyper-CEST spectra of cryptophane-conjugated peptides with calmodulin in absence and presence of calcium (FIG. 5); assay type: biochemical; conditions: peptide 1 μM, calmodulin 3 μM, MOPS; for Ca2+-dependent CEST unsuppression / signal change on calmodulin binding: calcium up to 100 μM; for CEST suppression (baseline, absence of calcium): no calcium, hyperpolarized 129Xe, 9.4 T
Protocol: Hyperpolarized Xenon was bubbled into buffered (MOPS) solutions containing different cryptophane bearing peptides indicated in the respective subfigures (1 μM) and calmodulin (3 μM) in the absence and presence of 100 μM calcium and CEST spectra were obtained on a 9.4 T Bruker AV 400 wide bore NMR spectrometer. (E) Effects of C-terminal portion of RS20 on the NMR-signal modulation. Replacement of the maleimide-Fluorescein by a maleimide capping group (NEM) partially unsuppresses the CEST effect.
However, the CEST suppression and Ca^2+-mediated unsuppression is weaker if the cryptophane cage is attached at the third lysine (@K3, FIG. 5B). […] (FIG. 5C).
(§1) The production, delivery and application of hyperpolarized Xe for NMR and MRI studies has been described previously including a full list of materials (Witte et al., 2012; Witte et al., 2014). Typically, hyperpolarized ^129Xe (20% polarization and more) is generated by spin exchange optical pumping using a 150 W continuous wave laser (795 nm, 0.5 nm bandwidth) in a custom-designed continuous flow setup at 4.5 bar absolute pressure using a gas mixture of 5% Xe (26.4% natural abundance of ^129Xe), 10% N2, and 85% He.
Experiments benefit from high field MRI scanners because of the increased spectral resolution for resolving the CEST response. As an example, a 9.4 T NMR spectrometer can be used for the NMR experiments. It requires gradient coils for MR imaging and a variable temperature unit for adjusting the sample temperature. A 10 mm inner-diameter double resonant probe (^129Xe (110 MHz) and ^iH (400 MHz)), can be used for excitation and detection.
The freshly hyperpolarized xenon gas mix is directly bubbled into solution for ca. 15 seconds at a total flow rate of 0.1 SLM followed by a 1 s delay (to allow possible remaining bubbles to collapse) before signal acquisition. To reduce foaming, 0.1% of Pluronic® L81 may be added to the sample. After bubbling, a saturation RF pulse is irradiated at the desired frequency and the signal of free Xe in solution is observed. ^129Xe Hyper-CEST MR images can be acquired using averages of a RARE sequence with a slice-selective 90° gaussian shaped excitation pulse and high RARE factor (up to 32 for a 32×32 matrix size) due to sufficiently slow T2 relaxation. Two images are acquired, one with an off-resonant saturation pulse for control and one with an on-resonant saturation pulse to induce signal loss in the vicinity of the sensor. Hyper-CEST MR images are obtained by a pixel-wise subtraction of the noise corrected off- and on-resonant images. All data analysis was performed with MATLAB®.

calmodulin [2] = target: T1, calmodulin; experiment: Hyper-CEST calcium titration, binding curves of cryptophane-peptide sensors with calmodulin; conditions: from CEST binding curves; 2 μM calmodulin; free calcium 0 to 39 μM; MOPS buffer; read-out: apparent dissociation constant
Protocol: (A) CEST spectra from M13 with a cryptophane Cage and also harboring a fluorescein (G-K(Cr-A)-[…]-C(5-Fluo-M)-amid) where Cr-A denotes the cryptophane A cage attached on the lysine residue and 5-Fluo-M a fluorescein attached to a cysteine) in the presence of 2 μM calmodulin and in response to free calcium concentrations ranging from 0 to 39 μM (MOPS buffer) (B) CEST spectra from RS20 (GRR-K(Cr-A)-WQKTGHAVRAIGRLSSS-C(5-Fluo-M)-amid; same annotation of modifications as in (A)) plotted analogously as in (A). (C) Corresponding binding curves yielding an apparent dissociation constant of 0.91 μM and 1 μM for M13 and RS20 respectively.
as §1
Experiments benefit from high field MRI scanners because of the increased spectral resolution for resolving the CEST response. As an example, a 9.4 T NMR spectrometer can be used for the NMR experiments. […]

[3] = Circular dichroism and CEST spectra at different trifluoroethanol (TFE) concentrations (FIG. 12); assay type: physicochemical; conditions: for CEST signal in TFE: 20% and 50% TFE; for CEST signal in TFE / CEST signal in water: without Ca2+ or CaM; for helicity of the peptide moiety (CD spectra): different concentrations of TFE
Excerpt: FIG. 12: Spectroscopic changes upon conformational change.

[4] = system: lysates obtained from HEK293 cells; experiment: Functionality of the sensor in cell lysates (FIG. 13); assay type: biochemical; conditions: for sensor response on addition of saturating calcium: HEK293 lysate with CaM, saturating amounts of calcium; for sensor response on addition of just CaM: HEK293 lysate, calcium already present in the lysate
Protocol: FIG. 13: Functionality of the sensor in cell lysates. The sensor M13-based sensor (blue) and RS20-based sensor (red) were added to lysates obtained from HEK293 cells.

HEK293 cells = experiment: Cellular uptake of cage-conjugated peptides, confocal microscopy and FACS (FIG. 8); assay type: cell-based; conditions: 25 μM, 20 minutes
Protocol: (A) Cage-conjugated peptides that were also labeled with fluorescein (25 μM) were incubated on HEK293 cells for 20 minutes followed by confocal microscopy imaging (nuclear counterstain with DAPI). (B) Analysis of FACS experiments with cells incubated with different peptides modified with cryptophane cages and fluorescein indicating labeling of the cells with the fluorescent peptides (sequences as indicated in FIG. 2; @K# indicates the lysine residue number used for conjugation of the cryptophane cage). […] The cellular uptake of similar EF-protein-binding peptides is likely due to their high scores on prediction tools for cell-penetration such as CPPpred or CellPPD.

For “ARKEVIRNKIRAIGK-CrytophaneCage-MARVFSVLR [calcineurin A peptide]”, the “Ca2+-dependent CEST unsuppression / signal change on calmodulin binding” value (calmodulin [1]; listed as cage-conjugated calcineurin) was “does not exhibit a change in the CEST effect” and the “CEST suppression (baseline, absence of calcium)” value (calmodulin [1]) was “neither show a suppression”.

With “G-K(Cr-A)-RRWKKNFIAVSAANRFKKISSSGAL-C(5-Fluo-M)-amid (GKRRWKKNFIAVSAANRFKKISSSGALC; cryptophane A on Lys; fluorescein on Cys; amide; Cr-A@K1_M13_Fluorescein)” the Kd (calmodulin [2]) was 910 nM, the “CEST signal in TFE” value [3] was “turned on” and the “helicity of the peptide moiety (CD spectra)” value [3] was “increase of the helicity”. The “CEST signal in water” value [3] was “no CEST signal”, the “sensor response on addition of saturating calcium” value [4] was “stronger response” and the “sensor response on addition of just CaM” value [4] was “turned on the sensor”.

For “GRR-K(Cr-A)-WQKTGHAVRAIGRLSSS-C(5-Fluo-M)-amid (GRRK(Cr‑A)WQKTGHAVRAIGRLSSSC(5‑Fluo‑M)-NH2) [Cr-A@K1_RS20_Fluorescein]”, the Kd (calmodulin [2]) was 1000 nM, the “Ca2+-dependent CEST unsuppression / signal change on calmodulin binding” value (calmodulin [1]) was “strong, Ca^2+-dependent CEST unsuppression” and the “CEST suppression (baseline, absence of calcium)” value (calmodulin [1]) was “complete CEST suppression”. The “CEST signal in TFE” value [3] was “turned on”, the “helicity of the peptide moiety (CD spectra)” value [3] was “increase of the helicity” and the “CEST signal in water” value [3] was “no CEST signal”. The “sensor response on addition of saturating calcium” value [4] was “stronger response”, the “sensor response on addition of just CaM” value [4] was “turned on the sensor” and the “cellular uptake (confocal microscopy)” value (HEK293 cells) was “uptake”.

With “GRRKWQK(Cr-A)-TGHAVRAIGRLSSS-C(5-Fluo-M)-amid (GRRKWQK(Cr‑A)TGHAVRAIGRLSSSC(5‑Fluo‑M)-NH2) [Cr-A@K3_RS20_Fluorescein, RS20 peptide with cryptophane A shifted three amino acids toward the center, C-terminal fluorescein]” the “Ca2+-dependent CEST unsuppression / signal change on calmodulin binding” value (calmodulin [1]; listed as @K3) was “weaker”, the “Ca2+-dependent CEST unsuppression / signal change on calmodulin binding” value (calmodulin [1]; listed as RS20-cage@K2) was “diminishes” and the “CEST suppression (baseline, absence of calcium)” value (calmodulin [1]; listed as @K3) was “weaker”. The “CEST suppression (baseline, absence of calcium)” value (calmodulin [1]; listed as RS20-cage@K2) was “diminishes the CEST suppression”.
